Reference: US20230295310A1 (ABCELLERA BIOLOGICS, published 2023)

What follows are binders tested against human CD3 (human, UniProt P07766 23-207; P04234 22-171; P09693 23-182) (assay: cell-based or functional assay).
Sequence of human CD3 (P07766 23-207, chain 1 of 3): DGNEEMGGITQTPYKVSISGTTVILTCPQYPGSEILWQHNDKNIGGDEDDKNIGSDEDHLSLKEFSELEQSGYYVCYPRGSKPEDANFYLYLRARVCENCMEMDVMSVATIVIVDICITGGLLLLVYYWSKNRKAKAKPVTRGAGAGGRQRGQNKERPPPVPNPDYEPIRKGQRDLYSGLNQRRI
Sequence of human CD3 (P04234 22-171, chain 2 of 3): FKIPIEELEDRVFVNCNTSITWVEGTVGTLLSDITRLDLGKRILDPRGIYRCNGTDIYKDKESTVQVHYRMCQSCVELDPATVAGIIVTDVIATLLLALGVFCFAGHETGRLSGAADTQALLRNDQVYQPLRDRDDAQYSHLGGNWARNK
Sequence of human CD3 (P09693 23-182, chain 3 of 3): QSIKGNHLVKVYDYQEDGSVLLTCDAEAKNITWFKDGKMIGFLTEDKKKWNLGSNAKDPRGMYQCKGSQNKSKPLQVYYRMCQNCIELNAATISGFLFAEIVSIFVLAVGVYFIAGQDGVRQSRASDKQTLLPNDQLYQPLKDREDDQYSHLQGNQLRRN

| Binder | CD4 EC50 (nM); CD69/CD25 on human T cells, plate-coated antibody [nM] | CD8 EC50 (nM); CD69/CD25 on human T cells, plate-coated antibody [nM] |
| --- | --- | --- |
| mAb 67 (antibody, V domains shown) VH: EVQLVESGGDLVQPGRSLRLSCAASGFTFDDCVIHWVRQAPGKGLEWVSGITWNSGRIGYADSVKGRFTISRDNAKNSLYLQMNSLRVEDTALYYCAKEGNYDFWSTYYRGYFDLWGRGTLVTVSS VL: DIQMTQSPSSLSASVGDRVTITCRASQGIRNDLGWYQQKPGIAPKRLIYAASSLQGGVPLRFSGSGSGTEFTLTISSLQPEDFATYYCLQHNSYPYTFGQGTKLEIK | 22 | 21.3 |
| mAb 179 (antibody, V domains shown) VH: EVQLVESGGGLVQPGRSLRLSCAASGFTFDDYTMHWVRQTPGKGLEWVSDISWNSGSIGYADSVKGRFTISRDNAKNTLYLQMNSLRAEDTALYYCVKDSSGYGHYLYYYMDVWGKGTTVTVSS VL: DIQMTQSPSSLSASVGDRVTITCRASQSIRNYLNWYQQSPGRAPKLLIFSASSLQSGVPSRFSGSGSGTDFTLTISSLQPEDFVTYYCQQRYSTPITFGQGTRLEIK | 10.4 | 9.87 |
| mAb 180 (antibody, V domains shown) VH: EVNLVESGGGLVQPGRSLRLSCAASGFTFDDYTMHWVRQVPGKGLEWVSNISWNSGSLGYADSVKGRFTISRDNAKDSLYLQMNSLRVEDTALYYCAKDSSGYGHYNSYYMDVWGKGTTVTVSS VL: DIQMTQSPSSLSASVGDRVTITCRASQSIRNYLNWYQQKPGKAPKVLIYSASSLQSGVPSRFSGSGSGTDFTLTISSLQPEDFASFYCQQTYSTPITFGQGTRLEIK | 6.54 | 6.57 |

Continued, values first:

| CD4 EC50 (nM); CD69/CD25 on human T cells, plate-coated antibody [nM] | CD8 EC50 (nM); CD69/CD25 on human T cells, plate-coated antibody [nM] | Binder |
| --- | --- | --- |
| 13 | 13.2 | mAb 66 (antibody, V domains shown) VH: QVQLVQSGAEVKKPGASVKVSCKASGYTVTGYYMHWVRQAPGQGLEWMGWINPNSGGTNFAQNFQGRVTMTRDTSISTFYMDLSRLRSDDTAVYYCARGGAPVSYWFFDLWGRGTLVTVSS VL: DIQMTQSPSSLSASVGDRVTITCRASQSISRYLNWYQQKPGKAPKVLIYNTSSLKSGVPSRFSGSGSGTDFTLTISSLQPEDFATLYCQQSHSTPFTFGPGTKVDIK |
| 12.5 | 12.6 | mAb 68 (antibody, V domains shown) VH: EVQLVDSGGGLVQPGGSLRLSCSGSGFTFSSYWMSWVRQAPGKGLEWVANIKQDGSQKYYVDSVKGRFTISRDNVKNSLYLQMNSLRVEDTAVYYCARDESSSWYWYFDLWGRGTLVTVSS VL: DIQMTQSPSTLSASVGDRVTLTCRASQNIVKWLAWYQQKPGKAPKLLIYKASSLESGVPSWFSGSGSGTEFTLTINSLQPDDFATYYCQQYYTYSRTFGQGTKVEIK |
| 8.54 | 8.91 | mAb 55 (antibody, V domains shown) VH: QVQLEQSGAEVKKPGASVKVSCKTSGYIFANYDINWVRQATGQGLEWMGWMNPKSGKAGYAQKFQGRVTMTSNTPINTAYMELSSLRSEDTAVYYCAREGHYDFWRGFYSFDYWGQGILVTVSS VL: DIQMTQSPSSLSASVGDRVTITCRASQGIRNDLGWYQQKPGKAPKRLIYTASSLQSGVPSRFSGSGSGTEFTLTISSLQPEDFATYFCLQYNTYPYTFGQGTKLEIK |
| 13.3 | 15.2 | mAb 54 (antibody, V domains shown) VH: EVQLEESGGGLVQPGGSLRLSCAASGFTFSRYSMNWVRQAPGKGLEWFSYISSSSRTIYYADSVKGRFTMSRDNAKNSLYLQMNSLRDEDTAVYFCARGDYYDSEGMDVWGKGTTVTVSS VL: DIQMTQSPSTLSASVGDRVTITCRASQTITTWLAWYQQKPGKAPKLLIYKASTLESGVPSRFSGSGSGTEFTLTISSLQPDDFATYHCQQYKTFSYTFGQGTKLDIK |
